EC50 data for nine molecules are collected here from US20220340682A1 (Sanofi, published 2022).

Experiment [1] deals with T1, human CEACAM5 expressed on the surface of tumor cells (human, UniProt P06731 35-685).
T1 construct: Endogenous CEACAM5 of human tumor cells; also called hCEACAM5 on MKN45 cells; CEACAM5 on CR-IGR-034P primary colon tumor cells
T1 sequence: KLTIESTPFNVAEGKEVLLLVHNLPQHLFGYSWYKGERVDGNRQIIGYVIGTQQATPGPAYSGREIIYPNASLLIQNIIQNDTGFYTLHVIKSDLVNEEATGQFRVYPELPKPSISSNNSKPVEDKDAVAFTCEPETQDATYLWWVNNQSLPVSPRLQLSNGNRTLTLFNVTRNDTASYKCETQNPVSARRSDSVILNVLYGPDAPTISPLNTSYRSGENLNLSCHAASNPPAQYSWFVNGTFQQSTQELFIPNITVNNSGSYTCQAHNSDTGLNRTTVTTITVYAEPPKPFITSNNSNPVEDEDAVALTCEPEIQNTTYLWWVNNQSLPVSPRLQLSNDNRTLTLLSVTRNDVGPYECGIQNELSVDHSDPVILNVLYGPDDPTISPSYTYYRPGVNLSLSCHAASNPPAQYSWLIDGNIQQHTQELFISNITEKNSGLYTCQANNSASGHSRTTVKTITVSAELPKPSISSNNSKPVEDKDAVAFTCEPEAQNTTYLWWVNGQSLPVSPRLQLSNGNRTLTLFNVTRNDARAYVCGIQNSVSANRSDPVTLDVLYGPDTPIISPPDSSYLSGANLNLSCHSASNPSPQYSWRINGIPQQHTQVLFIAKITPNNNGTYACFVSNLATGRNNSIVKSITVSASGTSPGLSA
Kind of experiment: flow cytometry on MKN45 cells. How it is done: The apparent affinity of anti-CEACAM5 antibodies to hCEACAM5 expressed on the surface of human MKN45 (DSMZ, ACC 409) tumoral cells were determined by Guava® easyCyte™ 8HT Flow Cytometry System. MKN45 tumoral cells were coated at 40,000 cells/well on 96-well High Bind plate (MSD L15XB-3) and 100 μL/well of anti-CEACAM5 antibodies were added in 2-fold serial dilutions starting at 20 μg/ml up to 12 dilutions in assay diluant for 45 min at 4° C. and washed three times with PBS 1% BSA. 100 μL/well of goat anti-mouse IgG conjugated with Alexa647 (Invitrogen; # A2135) was added for 45 min at 4° C. and washed three times with PBS 1% BSA. The antibody binding was evaluated after centrifugation and resuspension of cells by adding 200 μl/well PBS 1% BSA and read using Guava® easyCyte™ 8HT Flow Cytometry System. Apparent KD and EC₅₀ values were estimated using BIOST@T-BINDING and BIOST@T-SPEED softwares, respectively.

Experiment [2] concerns the target T1, human CEACAM5 expressed on the surface …. In words: flow cytometry on CR-IGR-034P primary colon tumor cells. How it is done:
Advanced human primary colon tumor CR-IGR-034P (Julien et al., Clin Cancer Res Oct. 1, 2012 18:5314-5328) was obtained from Patient-derived xenograft in mice. Tumor CR-IGR-034P was enzymatically dissociated using collagenase Type IV (Invitrogen; #17104-019) and deoxyribonuclease I (Invitrogen; #18047-019) for 1 h at […], Cell viability was estimated by Viacount application using Guava® easyCyte™ 8HT Flow Cytometry System. […] 100 μL/well of goat anti-mouse IgG conjugated with Alexa647 (Invitrogen; # A2135) or goat anti-human IgG conjugated with Alexa488 (Invitrogen; # A11013) was added for 45 min at 4° C. and washed three times with PBS 1% BSA. The antibody binding was evaluated after centrifugation and resuspension of cells by adding 200 pliwell PBS 1% BSA and read using Guava® easyCyte™ 8HT Flow Cytometry System. Apparent KD and EC50 values were estimated using BIOST@T-BINDING and BIOST@T-SPEED softwares, respectively.

Experiment [3] addresses T2, cCEACAM5, M. fascicularis CEACAM5 ECD (35-688) (Macaca fascicularis).
T2 construct: ECD followed by a 24 amino acid extension containing a His-Tag; also called cynomolgus CEACAM5; monkey CEACAM5
T2 chain: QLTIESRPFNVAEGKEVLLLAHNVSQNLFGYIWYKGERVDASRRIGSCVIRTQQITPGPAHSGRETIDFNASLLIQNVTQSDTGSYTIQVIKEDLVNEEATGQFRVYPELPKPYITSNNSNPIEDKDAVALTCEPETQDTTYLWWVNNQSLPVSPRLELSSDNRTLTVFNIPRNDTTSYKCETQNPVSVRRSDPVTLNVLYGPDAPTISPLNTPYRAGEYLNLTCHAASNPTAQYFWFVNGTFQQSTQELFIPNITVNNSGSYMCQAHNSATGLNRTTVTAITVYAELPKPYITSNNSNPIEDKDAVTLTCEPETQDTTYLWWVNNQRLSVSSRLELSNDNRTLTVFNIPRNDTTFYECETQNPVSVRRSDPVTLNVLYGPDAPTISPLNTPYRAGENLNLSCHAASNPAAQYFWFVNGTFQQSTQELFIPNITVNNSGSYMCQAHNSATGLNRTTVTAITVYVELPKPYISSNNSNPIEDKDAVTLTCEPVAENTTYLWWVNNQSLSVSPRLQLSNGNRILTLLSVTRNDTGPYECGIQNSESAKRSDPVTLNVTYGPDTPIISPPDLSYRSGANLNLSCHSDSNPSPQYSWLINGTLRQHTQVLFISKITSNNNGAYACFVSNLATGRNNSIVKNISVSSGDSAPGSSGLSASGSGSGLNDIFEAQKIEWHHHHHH
In words: ELISA.

B1: antibody MAb1 (antibody, IgG1, V domains shown)
VH: EVMLVESGGGLVKPGGSLKLSCAASGFTFSSYAMSWVRQTPEKRLEWVATISSGGSYIYYLDSVKGRFTISRDNAKNTLYLQMSSLRSEDTAMYYCARPAYYGNPAMDYWGQGTSVTVSS
VL: DILMTQSQKFMSTSVGDRVSVTCKASQNVGTNVAWYQQKPGQSPKPLIYSASYRYSGVPDRFTGSGSGTDFTLTISNVQSEDLAEYFCQQYNSYPLYTFGGGTKLEIK
Consider B1, for which the results for the EC50 in experiment [1] and in experiment [2] were 16 nM and 1 nM, respectively.

B2: antibody MAb3 (antibody, IgG1, V domains shown)
VH: EVKLVESGGGLVKPGGSLTLPCAASGFTFSRYAMSWVRQTPEKRLEWVASISSGGDTYYPDSVKGRFTVSRDNARNILFLQMSSLRSEDTGMYYCARVNYYDSSFLDWWGQGTTLTVSS
VL: DIVMTQSQRFMSTLEGDRVSVTCKASQNVGTNVAWYQQKPGQSPKALIYSASYRYSGVPDRFTGSGSGTDFTLTISNVQSEDLAEYFCQQYNNYPLYTFGGGTKLEIK
notes: Murine monoclonal from hybridoma, IgG1, kappa
As for B2, the EC50 in experiment [1] was 6.2 nM; in experiment [2], 2.8 nM.

B3: antibody MAb4 (antibody, IgG1, V domains shown)
VH: EVQLVESGGGLVKPGGSLKLSCAASGFTFSSYDMSWVRQTPEKRLEWVAFISSYGGRTYYADTVKGRFTISRDNAKNTLYLQMSSLKSEDTAMFYCAAHYFGTSGPFAYWGQGTLVTVSA
VL: DIQMTQSPASLSASVGETVTITCRASENIYSYFAWYQQKQGKSPQLLVYNAKILAEGVPSRFSGSGSGTQFSLKINSLQPEDFGTYYCQHHYGIPFTFGSGTKLELK
notes: as for B2
Turning to B3, the EC50 was 4.9 nM in experiment [1] and 0.2 nM in experiment [2].

B4: antibody MAb5 (antibody, IgG1, V domains shown)
VH: ELQLVESGGVLVKPGGSLKLSCAASGFAFSSYDMSWVRQTPEKRLEWVTYINSGGGITYYPDTVKGRFTISRDNARNTLYLQMSSLKSEDTAIYYCTAHYFGSSGPFAYWGQGTLVTVSA
VL: DIQMTQSPASLSASVGETVTITCRASENIYSYLAWYQQKQGKSPQLLVYNAKTLTEGVPSRFSGSGSGTQFSLKINSLQPEDFGSYYCQHHYGTPFTFGSGTKLEIK
notes: as for B2
Take B4: the EC50 in experiment [1] came out at 0.73 nM; in experiment [2], 1.4 nM.

B5: huMAb2-3 (antibody, human IgG1, kappa, V domains shown)
VH: EVQLQESGPGLVKPGGSLSLSCAASGFVFSSYDMSWVRQTPERGLEWVAYISSGGGITYAPSTVKGRFTVSRDNAKNTLYLQMNSLTSEDTAVYYCAAHYFGSSGPFAYWGQGTLVTVSS
VL: DIQMTQSPASLSASVGDRVTITCRASENIFSYLAWYQQKPGKSPKLLVYNTRTLAEGVPSRFSGSGSGTDFSLTISSLQPEDFATYYCQHHYGTPFTFGSGTKLEIKR
notes: Humanized MAb2, human IgG1 / Ckappa; also called MAb2_VL1cVH1a-IgG1
Consider B5, for which it took 0.19 nM to reach a half-maximal effect in experiment [3] (EC50).

B6: huMAb2-1 (antibody, V domains shown)
VH: EVQLQESGPGLVKPGGSLSLSCAASGFVFSSYDMSWVRQTPERRLEWVAYISSGGGITYFPSTVKGRFTVSRDNAKNTLYLQMNSLTSEDTAIYYCAAHYFGSSGPFAYWGQGTLVTVSA
VL: DIQMTQSPASLSASVGDTVTITCRASENIFSYLAWYQQKPGKSPKLLVYNTKTLAEGVPSRFSGSGSGTQFSLTISSLQPEDFGSYYCQHHYGTPFTFGSGTKLEIK
notes: Humanized MAb2 (VL1 + VH1) fused to human IgG1 and human Ckappa constant domains; also called MAb2_VL1VH1-IgG1; MAb2VL1VH1-IgG1
B6 yielded an EC50 in experiment [3] of 0.2 nM.

B7: huMAb2-4 (antibody, human IgG1, kappa, V domains shown)
VH: EVQLQESGPGLVKPGGSLSLSCAASGFVFSSYDMSWVRQTPERRLEWVAYISSGGGITYFPSTVKGRFTVSRDNAKNTLYLQMNSLTSEDTAIYYCAAHYFGSSGPFAYWGQGTLVTVSA
VL: DIQMTQSPASLSASVGDTVTITCRASENIFSYLAWYQQKPGKSPKLLVYNTRTLAEGVPSRFSGSGSGTQFSLTISSLQPEDFGSYYCQHHYGTPFTFGSGTKLEIKR
notes: Humanized MAb2, human IgG1 / Ckappa; also called MAb2_VL1d VH1-IgG1; MAb2_VL1dVH1-IgG1
B7 registered an EC50 in experiment [3] of 0.17 nM.

B8: chMAb2 (antibody, human IgG1, kappa, V domains shown)
VH: EVQLQESGGVLVKPGGSLKLSCAASGFVFSSYDMSWVRQTPEKRLEWVAYISSGGGITYFPDTVQGRFTVSRDNAKNTLYLQMNSLKSEDTAIYYCAAHYFGSSGPFAYWGQGTLVTVSA
VL: DIQMTQSPASLSASVGETVTITCRASENIFSYLAWYQQKQGKSPQLLVYNTKTLAEGVPSRFSGSGSGTQFSLKINSLQPEDFGSYYCQHHYGTPFTFGSGTKLEIKR
notes: Chimeric, human IgG1, Ck isotype; also called MAb2-IgG1; chimeric MAb2
Take B8: the midpoint of the response in experiment [3], the EC50, lay at 0.17 nM.

B9: huMAb2-2 (antibody, V domains shown)
VH: EVQLQESGPGLVKPGGSLSLSCAASGFVFSSYDMSWVRQTPERGLEWVAYISSGGGITYAPSTVKGRFTVSRDNAKNTLYLQMNSLTSEDTAVYYCAAHYFGSSGPFAYWGQGTLVTVSS
VL: DIQMTQSPASLSASVGDRVTITCRASENIFSYLAWYQQKPGKSPKLLVYNTKTLAEGVPSRFSGSGSGTDFSLTISSLQPEDFATYYCQHHYGTPFTFGSGTKLEIK
notes: Humanized MAb2 (VL1a + VH1a) fused to human IgG1 and human Ckappa constant domains; also called MAb2_VL1aVH1a-IgG1; MA2_VL1aVH1a-IgG1
In turn, B9 showed an EC50 in experiment [3] of 0.17 nM.
